Measurements taken from US5597711A, “Factor VIII binding domain of von Willebrand factor” (The Scripps Research Institute, priority 1995, dated 1997).

How the values were obtained:
vWF-FVIII complex = molecular target: T1, vWF-FVIII complex (Homo sapiens, UniProt P00451); experiment: Dissociation of FVIII from vWF immobilized on polystyrene beads by washing; type: binding
T1 construct: The purification of FVIII from commercial factor VIII concentrate (Armour Pharmaceutical, Kankakee, IL), by immunoadsorbent chromatography; tissue Armour Pharmaceutical, Kankakee, Ill; host or cells: commercial factor VIII concentrate, both proteins purified in house by immunoadsorbent chromatography
T1 sequence (P00451 1668-2351 limits assumed): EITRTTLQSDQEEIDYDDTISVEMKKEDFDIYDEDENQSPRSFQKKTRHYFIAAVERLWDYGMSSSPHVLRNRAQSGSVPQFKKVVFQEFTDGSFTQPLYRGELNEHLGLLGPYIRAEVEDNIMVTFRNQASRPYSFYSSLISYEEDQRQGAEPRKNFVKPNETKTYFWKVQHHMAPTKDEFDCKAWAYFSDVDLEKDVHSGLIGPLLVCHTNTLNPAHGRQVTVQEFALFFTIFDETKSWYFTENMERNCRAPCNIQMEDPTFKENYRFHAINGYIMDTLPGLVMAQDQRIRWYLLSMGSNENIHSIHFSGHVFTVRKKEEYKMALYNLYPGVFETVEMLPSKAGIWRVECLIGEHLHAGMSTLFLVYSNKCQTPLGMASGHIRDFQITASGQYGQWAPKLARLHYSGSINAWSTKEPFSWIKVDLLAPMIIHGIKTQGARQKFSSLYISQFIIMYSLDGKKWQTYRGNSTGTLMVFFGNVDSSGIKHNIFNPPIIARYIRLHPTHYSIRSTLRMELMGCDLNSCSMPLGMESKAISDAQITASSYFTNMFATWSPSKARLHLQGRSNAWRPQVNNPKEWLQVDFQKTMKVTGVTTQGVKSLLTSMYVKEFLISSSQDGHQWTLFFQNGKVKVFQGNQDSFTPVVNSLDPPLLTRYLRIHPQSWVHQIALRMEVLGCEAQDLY
T1 sequence (P00451 20-759 partner limits assumed): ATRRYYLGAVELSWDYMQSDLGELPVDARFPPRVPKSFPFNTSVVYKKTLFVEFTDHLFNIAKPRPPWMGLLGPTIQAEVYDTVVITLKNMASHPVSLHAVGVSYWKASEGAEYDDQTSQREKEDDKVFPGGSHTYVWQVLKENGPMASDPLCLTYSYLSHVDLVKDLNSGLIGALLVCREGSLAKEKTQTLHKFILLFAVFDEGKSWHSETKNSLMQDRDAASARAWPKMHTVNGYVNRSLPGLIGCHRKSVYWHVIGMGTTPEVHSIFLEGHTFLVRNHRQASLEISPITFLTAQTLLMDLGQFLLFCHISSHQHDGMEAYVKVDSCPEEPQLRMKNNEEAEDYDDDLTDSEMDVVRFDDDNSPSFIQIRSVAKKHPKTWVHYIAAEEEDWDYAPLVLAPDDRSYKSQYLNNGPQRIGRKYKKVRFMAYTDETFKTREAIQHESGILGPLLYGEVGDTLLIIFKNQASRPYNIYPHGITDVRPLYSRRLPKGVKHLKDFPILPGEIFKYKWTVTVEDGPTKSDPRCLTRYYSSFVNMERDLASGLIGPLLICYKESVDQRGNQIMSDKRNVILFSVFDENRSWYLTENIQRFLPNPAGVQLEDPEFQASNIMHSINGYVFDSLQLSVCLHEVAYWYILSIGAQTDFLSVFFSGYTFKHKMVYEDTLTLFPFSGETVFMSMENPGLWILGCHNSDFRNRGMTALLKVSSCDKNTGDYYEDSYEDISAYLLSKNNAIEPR
Procedure: (§1) Competitive inhibition assay of FVIII binding to solid phase vWF: 50 μg of whole unreduced vWF in 1 ml of 0.01M PO4, 0.15M Nacl, 0.02% NaN3, pH 7.3 (PBS), was incubated with three 1/4 inch in diameter polystyrene beads (Pierce Chemical Company, Rockford, Ill.) per 16 mm in diameter tissue culture well for 2 hours at room temperature. The solution was removed and the wells and the beads were then blocked with 1 ml of PBS containing 0.05% Tween-20 and 3% human serum albumin for 1 hour at room temperature. The wells and the beads were stored in the blocking solution at 4° C. for 16 hours to 10 days before use. The wells and beads were then washed ×3 with PBS. 0.05% Tween-20 and incubated for 11/2 hours at room temperature with 1.3 μg of purified FVIII and 0-100 μg of the competitive ligand in 1 ml of 0.05M imidazole, 0.15M Nacl, 0.02% NaN3, pH 7.0, 3 mM CaCl. The beads then were washed ×5 with PBS 0.05% Tween-20 and incubated for 11/2 hour at room temperature with 1.5×10^6 cpm of ^125 I-monoclonal anti-FVIII antibody C2 (specific activity 3.8×10^9 cpm/mg), in 1 ml of PBS 0.05% Tween-20 containing 0.5% bovine gamma globulin. After incubation, the wells and beads were washed with PBS 0.05% Tween-20×2. The beads were then transferred to clean wells and washed an additional four times and separately counted.
54, 1093-1094 (1974), 10-20 mM EDTA according to Tran et al., Thromb. Haemostas. 50, 547-551 (1983) or 1-1.5M Nacl according to Weiss et al., Thromb. Diath. Haemorrh. 27, 212-219 (1972).

purified FVIII [1] = molecular target: T2, purified FVIII (Homo sapiens, UniProt P00451); experiment: Crossed immunoelectrophoresis: complex formation of vWF or vWF fragments with FVIII; type: binding; settings: co-precipitation of 125I-labeled monoclonal anti-FVIII antibody
T2 construct: The purification of FVIII from commercial factor VIII concentrate (Armour Pharmaceutical, Kankakee, IL), by immunoadsorbent chromatography; tissue Armour Pharmaceutical, Kankakee, IL; host or cells: commercial factor VIII concentrate, purified in house by immunoadsorbent chromatography
T2 sequence (P00451 1668-2351 limits assumed): T1 sequence (P00451 1668-2351 limits assumed)
T2 sequence (P00451 20-759 partner limits assumed): T1 sequence (P00451 20-759 partner limits assumed)
Procedure: Two dimensional crossed immunoelectrophoresis of vWF was performed as described in Zimmerman et al., Immunoassays: Clinical Laboratory Techniques for the 1980's, pp. 339-349, Alan R. Liss, Inc., New York (1980), with the following modifications. Agarose was poured in a 1.5 cm strip at the bottom of a 10.2 cm×8.3 cm piece of Gelbond (FMC Corporation, Rockland, Me.). Purified vWF or fragments of vWF, FVIII, and ^125 I labeled monoclonal anti-FVIII antibody were mixed in the sample well and electrophoresed. A second gel containing 125-250 μl of rabbit serum containing polyclonal anti-vWF antibodies was then poured and the second dimension was electrophoresed at right angles to the first dimension. Autoradiographs were made of the gels and compared to Coomassie brilliant blue staining of the gels.

[2] = molecular target: T3, FVIII binding to solid phase vWF (Homo sapiens, UniProt P00451); experiment: Competitive inhibition assay of FVIII binding to solid phase vWF; settings: competitive ligand in fluid phase, 0-100 μg in 1 ml
T3 construct: The purification of FVIII from commercial factor VIII concentrate (Armour Pharmaceutical, Kankakee, IL), by immunoadsorbent chromatography; tissue Armour Pharmaceutical, Kankakee, Ill; host or cells: commercial factor VIII concentrate, both proteins purified in house by immunoadsorbent chromatography
T3 sequence (P00451 1668-2351 limits assumed): T1 sequence (P00451 1668-2351 limits assumed)
T3 sequence (P00451 20-759 partner limits assumed): T1 sequence (P00451 20-759 partner limits assumed)
Procedure: as §1, with “counted. […]” for “counted.”

purified FVIII [3] = molecular target: T2, purified FVIII; experiment: Binding of purified FVIII to vWF or SP fragment III immobilized on polystyrene beads; settings: protein adsorbed on polystyrene beads; detected with 125I-labeled monoclonal anti-FVIII antibody
Procedure: as §1, with “counted. […]” for “counted.”

[Ca+2].[Cl-].[Cl-] [CaCl2] was tested, and the “dissociation of FVIII from vWF” value (vWF-FVIII complex; five washings with imidazole buffered saline containing 3 mM CaCl2) was “no FVIII dissociation” and the “dissociation of FVIII from vWF” value (vWF-FVIII complex; five washings with imidazole buffered saline containing 0.25M CaCl2 at 37° C.) was 70 ±4%.

In the case of O=C(O)CN(CCN(CC(=O)O)CC(=O)O)CC(=O)O [EDTA], the “dissociation of FVIII from vWF” value (vWF-FVIII complex; five washings with imidazole buffered saline containing 20 mM EDTA) is reported as 66 ±5%.

[Cl-].[Na+] [Nacl] was tested, and the “dissociation of FVIII from vWF” value (vWF-FVIII complex; five washings with imidazole buffer containing 1.5M Nacl) was 86 ±1%.

For “Reduced and alkylated vWF: vWF after reduction and alkylation”, the “complex formation with FVIII” value (purified FVIII [1]) was “unable to bind FVIII” and the “inhibition of FVIII binding to immobilized vWF (in words)” value [2] was “no inhibitory effect”.

With “vWF: purified von Willebrand factor from commercial factor VIII concentrate” the “complex formation with FVIII” value (purified FVIII [1]) was “demonstrated complex formation”, the “inhibition of FVIII binding to immobilized vWF (in words)” value [2] was “completely inhibit” and the “binding of purified FVIII to the immobilized protein” value (purified FVIII [3]) was “bound”.
